From paper PMC7355005 (Proceedings of the National Academy of Sciences of the …, 2020)
Where “and” joins values, the source holds several entries; their conditions need not be identical. Identical values can stand only once. One block for each binder: values may come before it.

What was measured:
mass photometry = molecular target: the molecule itself; test: mass photometry
Human hemoglobin (Hb) = Human hemoglobin (Hb) (human, UniProt P69905;P68871); test: mass photometry
native MS = molecular target: the molecule itself; test: native MS

Chain of Human hemoglobin (Hb) (P69905 whole entry, chain 1 of 2): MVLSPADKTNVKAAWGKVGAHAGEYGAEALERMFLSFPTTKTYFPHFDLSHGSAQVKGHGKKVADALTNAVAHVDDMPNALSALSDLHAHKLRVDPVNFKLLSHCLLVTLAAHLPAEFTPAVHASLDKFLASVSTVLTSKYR
Chain of Human hemoglobin (Hb) (P68871 whole entry, chain 2 of 2): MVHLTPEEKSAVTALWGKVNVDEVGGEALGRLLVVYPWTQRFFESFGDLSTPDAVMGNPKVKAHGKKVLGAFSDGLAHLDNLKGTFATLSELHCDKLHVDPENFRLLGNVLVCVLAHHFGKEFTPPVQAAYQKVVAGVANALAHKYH

- stoichiometry N (Human hemoglobin (Hb)): 2 Hb(αβ) dimers per Hp 1-1 dimer
B1: Haptoglobin 1-1 (Hp 1-1), dimer of two α1β units (complex)
chain 1: VDSGNDVTDIADDGCPKPPEIAHGYVEHSVRYQCKNYYKLRTEGDGVYTLNNEKQWINKAVGDKLPECEAVCGKPKNPANPVQ
chain 2: ILGGHLDAKGSFPWQAKMVSHHNLTTGATLINEQWLLTTAKNLFLNHSENATAKDIAPTLTLYVGKKQLVEIEKVVLHPNYSQVDIGLIKLKQKVSVNERVMPICLPSKDYAEVGRVGYVSGWGRNANFKFTDHLKYVMLPVADQDQCIRHYEGSTVPEKKTPKSPVGVQPILNEHTFCAGMSKYQEDTCYGDAGSAFAVHDLEEDTWYATGILSFDKSCAVAEYGVYVKVTSIQDWVQKTIAEN
modifications: N-glycans at Asn184, Asn207, Asn211 and Asn241
- stoichiometry N (mass photometry): 2 Hp (αβ) units

- stoichiometry N (Human hemoglobin (Hb)): 1 Hb(αβ) dimer per Hp (αβ) monomer
B2: Haptoglobin 2-2 (Hp 2-2), cyclic (α2)n(β)n oligomers (complex)
chain 1: VDSGNDVTDIADDGCPKPPEIAHGYVEHSVRYQCKNYYKLRTEGDGVYTLNDKKQWINKAVGDKLPECEADDGCPKPPEIAHGYVEHSVRYQCKNYYKLRTEGDGVYTLNNEKQWINKAVGDKLPECEAVCGKPKNPANPVQ
chain 2: B1 chain 2
modifications: N-glycans at Asn184, Asn207, Asn211 and Asn241
- stoichiometry N (native MS): < 7 Hp (αβ) units

B3: Haptoglobin 2-1 (Hp 2-1) oligomers from the serum of a single heterozygote donor (complex)
chain 1: B1 chain 1
chain 2: B2 chain 1
chain 3: B1 chain 2
modifications: N-glycans at Asn184, Asn207, Asn211 and Asn241
- stoichiometry N (native MS): 3 Hp (αβ) units and 4 Hp (αβ) units and 5 Hp (αβ) units
